B1: His-GST-N-Cbl wild-type (residues 47-435) (domain or fragment, UniProt P22681 47-435, looked up)
chain: PPGTVDKKMVEKCWKLMDKVVRLCQNPKLALKNSPPYILDLLPDTYQHLRTILSRYEGKMETLGENEYFRVFMENLMKKTKQTISLFKEGKERMYEENSQPRRNLTKLSLIFSHMLAELKGIFPSGLFQGDTFRITKADAAEFWRKAFGEKTIVPWKSFRQALHEVHPISSGLEAMALKSTIDLTCNDYISVFEFDIFTRLFQPWSSLLRNWNSLAVTHPGYMAFLTYDEVKARLQKFIHKPGSYIFRLSCTRLGQWAIGYVTADGNILQTIPHNKPLFQALIDGFREGFYLFPDGRNQNPDLTGLCEPTPQDHIKVTQEQYELYCEMGSTFQLCKICAENDKDVKIEPCGHLMCTSCLTSWQESEGQGCPFCRCEIKGTEPIVVDPFD
notes: Cbl (c-Cbl), N-terminal fragment with TKBD, linker helix region and RING domain (N-Cbl), residues 47-435; Modified pGEX4T1 with N-terminal His-GST tag followed by a thrombin or TEV cleavage site; tag not cleaved for SPR; also called WT; wild-type N-Cbl; not shown: His, N-terminal, kept; GST, N-terminal, kept
B2: His-GST-N-Cbl Y371H (residues 47-435) (domain or fragment, UniProt P22681 47-435, looked up)
chain: PPGTVDKKMVEKCWKLMDKVVRLCQNPKLALKNSPPYILDLLPDTYQHLRTILSRYEGKMETLGENEYFRVFMENLMKKTKQTISLFKEGKERMYEENSQPRRNLTKLSLIFSHMLAELKGIFPSGLFQGDTFRITKADAAEFWRKAFGEKTIVPWKSFRQALHEVHPISSGLEAMALKSTIDLTCNDYISVFEFDIFTRLFQPWSSLLRNWNSLAVTHPGYMAFLTYDEVKARLQKFIHKPGSYIFRLSCTRLGQWAIGYVTADGNILQTIPHNKPLFQALIDGFREGFYLFPDGRNQNPDLTGLCEPTPQDHIKVTQEQYELHCEMGSTFQLCKICAENDKDVKIEPCGHLMCTSCLTSWQESEGQGCPFCRCEIKGTEPIVVDPFD
notes: Cbl (c-Cbl), N-terminal fragment with TKBD, linker helix region and RING domain (N-Cbl), residues 47-435; mutation identified in MDS/MPN clinical samples; Tag not cleaved for SPR; not shown: His, N-terminal, kept; GST, N-terminal, kept
B3: His-GST-N-Cbl Y371S (residues 47-435) (domain or fragment, UniProt P22681 47-435, looked up)
chain: PPGTVDKKMVEKCWKLMDKVVRLCQNPKLALKNSPPYILDLLPDTYQHLRTILSRYEGKMETLGENEYFRVFMENLMKKTKQTISLFKEGKERMYEENSQPRRNLTKLSLIFSHMLAELKGIFPSGLFQGDTFRITKADAAEFWRKAFGEKTIVPWKSFRQALHEVHPISSGLEAMALKSTIDLTCNDYISVFEFDIFTRLFQPWSSLLRNWNSLAVTHPGYMAFLTYDEVKARLQKFIHKPGSYIFRLSCTRLGQWAIGYVTADGNILQTIPHNKPLFQALIDGFREGFYLFPDGRNQNPDLTGLCEPTPQDHIKVTQEQYELSCEMGSTFQLCKICAENDKDVKIEPCGHLMCTSCLTSWQESEGQGCPFCRCEIKGTEPIVVDPFD
notes: as for B2
B4: His-GST-N-Cbl Y368F (residues 47-435) (domain or fragment, UniProt P22681 47-435, looked up)
chain: PPGTVDKKMVEKCWKLMDKVVRLCQNPKLALKNSPPYILDLLPDTYQHLRTILSRYEGKMETLGENEYFRVFMENLMKKTKQTISLFKEGKERMYEENSQPRRNLTKLSLIFSHMLAELKGIFPSGLFQGDTFRITKADAAEFWRKAFGEKTIVPWKSFRQALHEVHPISSGLEAMALKSTIDLTCNDYISVFEFDIFTRLFQPWSSLLRNWNSLAVTHPGYMAFLTYDEVKARLQKFIHKPGSYIFRLSCTRLGQWAIGYVTADGNILQTIPHNKPLFQALIDGFREGFYLFPDGRNQNPDLTGLCEPTPQDHIKVTQEQFELYCEMGSTFQLCKICAENDKDVKIEPCGHLMCTSCLTSWQESEGQGCPFCRCEIKGTEPIVVDPFD
notes: Cbl (c-Cbl), N-terminal fragment with TKBD, linker helix region and RING domain (N-Cbl), residues 47-435; Tag not cleaved for SPR; not shown: His, N-terminal, kept; GST, N-terminal, kept
B5: His-GST-N-Cbl Y371A (residues 47-435) (domain or fragment, UniProt P22681 47-435, looked up)
chain: PPGTVDKKMVEKCWKLMDKVVRLCQNPKLALKNSPPYILDLLPDTYQHLRTILSRYEGKMETLGENEYFRVFMENLMKKTKQTISLFKEGKERMYEENSQPRRNLTKLSLIFSHMLAELKGIFPSGLFQGDTFRITKADAAEFWRKAFGEKTIVPWKSFRQALHEVHPISSGLEAMALKSTIDLTCNDYISVFEFDIFTRLFQPWSSLLRNWNSLAVTHPGYMAFLTYDEVKARLQKFIHKPGSYIFRLSCTRLGQWAIGYVTADGNILQTIPHNKPLFQALIDGFREGFYLFPDGRNQNPDLTGLCEPTPQDHIKVTQEQYELACEMGSTFQLCKICAENDKDVKIEPCGHLMCTSCLTSWQESEGQGCPFCRCEIKGTEPIVVDPFD
notes: as for B4
B6: His-GST-N-Cbl Y371C (residues 47-435) (domain or fragment, UniProt P22681 47-435, looked up)
chain: PPGTVDKKMVEKCWKLMDKVVRLCQNPKLALKNSPPYILDLLPDTYQHLRTILSRYEGKMETLGENEYFRVFMENLMKKTKQTISLFKEGKERMYEENSQPRRNLTKLSLIFSHMLAELKGIFPSGLFQGDTFRITKADAAEFWRKAFGEKTIVPWKSFRQALHEVHPISSGLEAMALKSTIDLTCNDYISVFEFDIFTRLFQPWSSLLRNWNSLAVTHPGYMAFLTYDEVKARLQKFIHKPGSYIFRLSCTRLGQWAIGYVTADGNILQTIPHNKPLFQALIDGFREGFYLFPDGRNQNPDLTGLCEPTPQDHIKVTQEQYELCCEMGSTFQLCKICAENDKDVKIEPCGHLMCTSCLTSWQESEGQGCPFCRCEIKGTEPIVVDPFD
notes: as for B2
B7: His-GST-pTyr371-N-Cbl Y368F (residues 47-435) (domain or fragment, UniProt P22681 47-435, looked up)
chain: PPGTVDKKMVEKCWKLMDKVVRLCQNPKLALKNSPPYILDLLPDTYQHLRTILSRYEGKMETLGENEYFRVFMENLMKKTKQTISLFKEGKERMYEENSQPRRNLTKLSLIFSHMLAELKGIFPSGLFQGDTFRITKADAAEFWRKAFGEKTIVPWKSFRQALHEVHPISSGLEAMALKSTIDLTCNDYISVFEFDIFTRLFQPWSSLLRNWNSLAVTHPGYMAFLTYDEVKARLQKFIHKPGSYIFRLSCTRLGQWAIGYVTADGNILQTIPHNKPLFQALIDGFREGFYLFPDGRNQNPDLTGLCEPTPQDHIKVTQEQFELYCEMGSTFQLCKICAENDKDVKIEPCGHLMCTSCLTSWQESEGQGCPFCRCEIKGTEPIVVDPFD
modifications: phosphotyrosine at 371
notes: Cbl (c-Cbl), N-terminal fragment with TKBD, linker helix region and RING domain (N-Cbl), residues 47-435; Y368F is required for homogeneous phosphorylation at Tyr371; also called pY371 Y368F; source: generated as described previously [6]; not shown: His, N-terminal, kept; GST, N-terminal, kept
B8: His-GST-N-Cbl Y371F (residues 47-435) (domain or fragment, UniProt P22681 47-435, looked up)
chain: PPGTVDKKMVEKCWKLMDKVVRLCQNPKLALKNSPPYILDLLPDTYQHLRTILSRYEGKMETLGENEYFRVFMENLMKKTKQTISLFKEGKERMYEENSQPRRNLTKLSLIFSHMLAELKGIFPSGLFQGDTFRITKADAAEFWRKAFGEKTIVPWKSFRQALHEVHPISSGLEAMALKSTIDLTCNDYISVFEFDIFTRLFQPWSSLLRNWNSLAVTHPGYMAFLTYDEVKARLQKFIHKPGSYIFRLSCTRLGQWAIGYVTADGNILQTIPHNKPLFQALIDGFREGFYLFPDGRNQNPDLTGLCEPTPQDHIKVTQEQYELFCEMGSTFQLCKICAENDKDVKIEPCGHLMCTSCLTSWQESEGQGCPFCRCEIKGTEPIVVDPFD
notes: as for B4
B9: His-GST-N-Cbl Y371E (residues 47-435) (domain or fragment, UniProt P22681 47-435, looked up)
chain: PPGTVDKKMVEKCWKLMDKVVRLCQNPKLALKNSPPYILDLLPDTYQHLRTILSRYEGKMETLGENEYFRVFMENLMKKTKQTISLFKEGKERMYEENSQPRRNLTKLSLIFSHMLAELKGIFPSGLFQGDTFRITKADAAEFWRKAFGEKTIVPWKSFRQALHEVHPISSGLEAMALKSTIDLTCNDYISVFEFDIFTRLFQPWSSLLRNWNSLAVTHPGYMAFLTYDEVKARLQKFIHKPGSYIFRLSCTRLGQWAIGYVTADGNILQTIPHNKPLFQALIDGFREGFYLFPDGRNQNPDLTGLCEPTPQDHIKVTQEQYELECEMGSTFQLCKICAENDKDVKIEPCGHLMCTSCLTSWQESEGQGCPFCRCEIKGTEPIVVDPFD
notes: as for B4
B10: His-GST-N-Cbl Y371D (residues 47-435) (domain or fragment, UniProt P22681 47-435, looked up)
chain: PPGTVDKKMVEKCWKLMDKVVRLCQNPKLALKNSPPYILDLLPDTYQHLRTILSRYEGKMETLGENEYFRVFMENLMKKTKQTISLFKEGKERMYEENSQPRRNLTKLSLIFSHMLAELKGIFPSGLFQGDTFRITKADAAEFWRKAFGEKTIVPWKSFRQALHEVHPISSGLEAMALKSTIDLTCNDYISVFEFDIFTRLFQPWSSLLRNWNSLAVTHPGYMAFLTYDEVKARLQKFIHKPGSYIFRLSCTRLGQWAIGYVTADGNILQTIPHNKPLFQALIDGFREGFYLFPDGRNQNPDLTGLCEPTPQDHIKVTQEQYELDCEMGSTFQLCKICAENDKDVKIEPCGHLMCTSCLTSWQESEGQGCPFCRCEIKGTEPIVVDPFD
notes: as for B2
B11: His-GST-N-Cbl M222E (residues 47-435) (domain or fragment, UniProt P22681 47-435, looked up)
chain: PPGTVDKKMVEKCWKLMDKVVRLCQNPKLALKNSPPYILDLLPDTYQHLRTILSRYEGKMETLGENEYFRVFMENLMKKTKQTISLFKEGKERMYEENSQPRRNLTKLSLIFSHMLAELKGIFPSGLFQGDTFRITKADAAEFWRKAFGEKTIVPWKSFRQALHEVHPISSGLEAEALKSTIDLTCNDYISVFEFDIFTRLFQPWSSLLRNWNSLAVTHPGYMAFLTYDEVKARLQKFIHKPGSYIFRLSCTRLGQWAIGYVTADGNILQTIPHNKPLFQALIDGFREGFYLFPDGRNQNPDLTGLCEPTPQDHIKVTQEQYELYCEMGSTFQLCKICAENDKDVKIEPCGHLMCTSCLTSWQESEGQGCPFCRCEIKGTEPIVVDPFD
notes: as for B4

In article PMC5015263, “Casitas B-lineage lymphoma linker helix mutations found in myeloproliferative neoplasms affect conformation” (BMC Biology, 2016) one finds Kd data, which are given here for eleven molecules.

The target of this experiment is T1, UbcH5B S22R C85K–Ub (UniProt P62837 1-147; P0CG47 1-76, S22R | C85K, conjugated to Ub via an isopeptide bond (non-hydrolyzable amide linkage) | conjugated to UbcH5B via an isopeptide bond).
T1 construct: E2 ubiquitin-conjugating enzyme UbcH5B; ubiquitin (Ub); also called UbcH5B–Ub; E2–Ub; source: expressed, generated and purified as described previously [7]
Put plainly: SPR; GST-Cbl variants coupled to CM-5 chips; UbcH5B–Ub as analyte at 0–120 μM; Biacore T200. To be noted: both partners purified.
Regarding B1, the affinity, expressed as Kd, was 84 µM.
Turning to B2, the dissociation constant Kd amounted to 39 µM.
Molecule B3 gave a Kd of 16 µM.
Molecule B4 had a Kd of 49 µM.
Next, B5: 30 µM; B6: 36 µM; B7: 2.6 µM.
In the case of B8, the Kd stood at 84 µM.
The molecule B9 gave a Kd of 9 µM.
Next, B10: 10 µM; B11: 14 µM.
